Target: the molecule itself
Experiment: SEC-MALS

B1: nCPEB4-NTD (N-terminal domain of neuronal CPEB4, with microexon 4) (domain or fragment, human)
chain: MGDYGFGVLVQSNTGNKSAFPVRFHPHLQPPHHHQNATPSPAAFINNNTAANGSSAGSAWLFPAPATHNIQDEILGSEKAKSQQQEQQDPLEKQQLSPSPGQEAGILPETEKAKSEENQGDNSSENGNGKEKIRIESPVLTGFDYQEATGLGTSTQPLTSSASSLTGFSNWSAAIAPSSSTIINEDASFFHQGGVPAASANNGALLFQNFPHHVSPGFGGSFSPQIGPLSQHHPHHPHFQHHHSQHQQQRRSPASPHPPPFTHRNAAFNQLPHLANNLNKPPSPWSSYQSPSPTPSSSWSPGGGGYGGWGGSQGRDHRRGLNGGITPLNSISPLKKNFASNHIQLQKYARPSSAFAPKSWMEDSLNRADNIFPFPDRPRTFDMHSLESSLIDIMRAENDTIKARTYGRRRGQSSLFPMEDGFLDDGRGDQPLHSGLGSPHCFSHQNGE
With B1 as the protein, how does the “stoichiometry N” value read?
Its value is ~350 molecules.
